Experiment [1] concerns Human platelets in PRP. The experiment is described as follows: γ-thrombin-induced aggregation of human platelets in PRP in vitro. To be noted: 20 nM γ-thrombin. The format is cell-based. The method, then: Platelet aggregation studies on the PRP were conducted on a 4-channel aggregometer (BioData-PAP-4, Bio Data Corp., Hatboro, Pa.). The degree of platelet aggregation was determined by measuring the increase in light transmission through a stirred suspension of PRP maintained at 37° C. Platelet aggregation was induced in the PRP sample by addition of 20 μM ADP and γ-thrombin according to the method of Harfenist et al., Thromb. Haemost. 53, 183 (1985). […] Like human platelets, rabbit platelets display a variable response to γ-thrombin. Each rabbit's platelets were evaluated before BK analog infusion for their threshold response to γ-thrombin. The rabbit platelets used in this experiment were responsive to 10 nM to 40 nM γ-thrombin. Simultaneous γ-thrombin-induced platelet aggregation studies were performed with 10, 20, and 40 nM γ-thrombin and 20 μM ADP.
The protocol for the human platelet study was identical to that for the functional study with white rabbits described above in Section III.A, with the following differences.
Blood samples were obtained from normal human volunteers. Platelet counts were measured with a Coulter counter, Model 2F (Coulter, Hialeah, Fla.,) and adjusted to a platelet count of 200,000 platelets/μl. Each individual's platelets at baseline were measured for their threshold response to γ-thrombin. Typical threshold levels were between 10 nM to 40 nM.

For experiment [2], the target named is T1, thrombin receptor (Homo sapiens, UniProt P25116).
T1 construct: endogenous in cells; host or cells: washed platelets from fresh blood
T1 sequence (P25116 22-425): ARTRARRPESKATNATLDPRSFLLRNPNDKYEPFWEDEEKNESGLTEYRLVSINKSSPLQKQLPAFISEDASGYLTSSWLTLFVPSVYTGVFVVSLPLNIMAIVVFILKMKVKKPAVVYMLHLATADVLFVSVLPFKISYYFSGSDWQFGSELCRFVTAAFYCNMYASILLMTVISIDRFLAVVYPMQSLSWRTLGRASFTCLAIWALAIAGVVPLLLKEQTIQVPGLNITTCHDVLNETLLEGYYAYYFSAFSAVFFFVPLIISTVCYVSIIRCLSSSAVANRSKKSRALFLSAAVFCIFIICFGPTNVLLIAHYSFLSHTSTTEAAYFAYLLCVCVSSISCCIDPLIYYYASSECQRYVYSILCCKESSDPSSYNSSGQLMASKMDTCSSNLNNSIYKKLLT
Briefly: flow cytometry of thrombin receptor epitopes (SPAN12, ATAP138) on α-thrombin activated platelets. The format is cell-based. Conditions: peptide 1 nM (so in the source), α-thrombin 1 nM. The procedure: Flow cytometry studies were performed to determine whether BK analogs prevent α-thrombin from eliminating an epitope on the thrombin receptor which is lost following α-thrombin cleavage- of the receptor. SPAN12 is an antibody to the thrombin receptor on platelets, which is specific for such an epitope. Studies were also performed to determine the effect of BK analogs on an epitope recognized by monoclonal antibody ATAP 138. The antibody is directed to an epitope on the thrombin receptor which is preserved after α-thrombin cleaves the receptor (FIGS. 7A-7D).
Monoclonal antibody SPAN12 was reared to the 12 amino acids, Asn-Ala-Thr-Leu-Asp-Pro-Arg-Ser-Phe-Leu-Leu-Arg (SEQ ID NO:2), that bridge the α-thrombin cleavage site on the thrombin receptor by the methods of Molinot et al., J. Biol. Chem. 270:ln Press, 1995. […]
Mouse IgG and an antibody to the epitope CD62 were used as controls. […] The fluorescence of bound FITC-anti-IgG to platelets was monitored on an Epics-C flow cytometer (Coulter Electronics, Hialeah, Fla.). Light scatter and fluorescence channels were set at logarithmic gain. […] Green fluorescence was observed through a 525 nm band pass filter. The relative fluorescence intensity of at least 15,000 platelets was analyzed in each sample. […]

Experiment [3] addresses α-thrombin (Homo sapiens, UniProt P00734). Briefly: α-thrombin cleavage of thrombin receptor peptide NAT12 (HPLC). The format is biochemical. To be noted: peptide 1 mM. The method, then:
A further study was performed to determine whether BK analogs prevent α-thrombin from cleaving the thrombin receptor reported by Vu et al., Cell 64, 1057 (1991). A peptide, NAT12 (SEQ ID NO:2), which spans amino acids […] of the α-thrombin cleavage site on the thrombin receptor, was used to determine whether the BK analogs described herein blocked α-thrombin cleavage of the cloned receptor.
The cleavage study was performed according to the method of Molino et al., J. Biol. Chem. 270,11168(1995),inwhichNAT12(SEQ ID NO:2) was dissolved in a solution of 0.01 M NaH2 PO4 and 0.15 M NaCl, pH 7.4. […] Following incubation, each mixture was separated by applying the mixture to a Vyadec C-18 HPLC column in 0.1% trifluoroacetic acid and eluting the mixture with a gradient from 0% to 100% of 80% MeCN and 0.1% trifluoroacetic acid. The size of the separated products were confirmed by mass spectrometry.

Ends that are not written are not given here.

“4-MAP: four-branch multiple antigenic peptide of BK analog SEQ ID NO:20 on a lysine-β-alanine core (RPPG; also: four-branch MAP on lysine-beta-alanine core)”: in experiment [1] (0.05 mM), the “effect on γ-thrombin-induced aggregation tracing” value was “abolished”.
In the case of “SEQ ID NO:4: unrelated peptide having an amino acid content similar to BK analog SEQ ID NO:14 (FNQTQPERGDNNLTR)”, the “alteration of SPAN12 epitope by α-thrombin” value in experiment [2] is listed as “did not prevent”.
With “SEQ ID NO:21: non-BK analog peptide derived from domain 3 of kininogen (LNAENNA) [reference compound]”, the “protection of NAT12 / thrombin receptor from α-thrombin cleavage” value in experiment [3] was “no protection”. Further, in experiment [3] (8 nM α-thrombin), the “cleavage product peak 2, share of non-treated NAT12 peak area” value amounted to 32% and the “cleavage product peak 3, share of non-treated NAT12 peak area” value is 54%. For the same substance, the “reduction of NAT12 peak 1 area after α-thrombin” value in experiment [3] (8 nM α-thrombin, one hour 37° C.) is reported as 86%. The “effect on γ-thrombin-induced aggregation tracing” value in experiment [1] (peptide 1 mM) is on record as “unable to alter”.

These data come from patent publication US6143719A, “Bradykinin analogs as selective thrombin inhibitors” (The Regents of the University of Michigan, priority 1996, dated 2000).
